Reference: patent publication US20150125463A1 (Bristol-Myers Squibb, published 2015)
Where a chain is given by its changes, count along the chain named. Values belong to the binder of their own block, whether it stands above or below them.

How the values were obtained:
[1] = target: T1, human PD-L1 (on cells or in tissue) (human, UniProt Q9NZQ7 19-290); experiment: competition flow cytometry on ES-2 cells: unlabeled Ab titrated, then biotin-12A4 at 0.4 ug/mL, streptavidin-PE
T1 construct: whole, on cells; also called hPD-L1; Programmed Death Ligand-1

[2] = target: T1, human PD-L1 (on cells or in tissue); experiment: flow cytometry competition on CHO/PD-L1 cells; unlabeled mAb at 10 ug/ml
Description: (§1) Different quantities of the various FITC-conjugated HuMAbs were used due to differences in binding efficiency following labeling, and the optimal amounts of these FITC-conjugated HuMAbs were previously determined by dose-titration analysis of binding to CHO/PD-L1 cells.

[3] = target: T2, human PD-1 (human, UniProt Q15116 25-288); experiment: flow cytometry on CHO/PD-1 cells pre-incubated with 10 ug/mL hIgG1 control, 2D3 at 0.2 ug/mL, detection with FITC goat anti-hIgG Fc
T2 construct: whole, on cells; also called hPD-1; Programmed Death-1

[4] = target: T2, human PD-1; experiment: flow cytometry on CHO/PD-1 cells pre-incubated with 10 ug/mL hIgG1 control, 4H1 at 0.2 ug/mL, detection with FITC goat anti-hIgG Fc
[5] = target: T2, human PD-1; experiment: flow cytometry on CHO/PD-1 cells pre-incubated with hIgG control, FITC-labeled 17D8
[6] = target: T2, human PD-1; experiment: flow cytometry on CHO/PD-1 cells pre-incubated with 10 ug/mL hIgG1 control, 7D3 at 0.2 ug/mL, detection with FITC goat anti-hIgG Fc
[7] = target: T1, human PD-L1 (on cells or in tissue); experiment: flow cytometry on CHO/PD-L1 cells pre-incubated with 10 ug/mL hIgG1, FITC-10H10 at 0.27 ug/mL
Description: as §1

binding result [2]: binds
B2: anti-PD-L1 HuMAb 7H1 (antibody, V domains shown)
VH: QVQLVQSGAEVKKPGSSVKVSCKTSGGTFSSYAISWVRQAPGQGLEWMGGIIPIFGKAHYAQKFQGRVTITADESTTTAYMELSSLRSEDTAVYYCARKYDYVSGSPFGMDVWGQGTTVTVSS
VL: not shown
notes: Human mAb

binding result [4]: binds
B4: anti-PD-1 HuMAb 4H1 (antibody, V domains shown)
VH: QVYLVESGGGVVQPGRSLRLSCAASGFTFSNYGMHWVRQAPGKGLEWVALIWYDGSNKYYADSVKGRFTISRDNSKNTLYLQMTSLRVEDTAVYYCASNVDHWGQGTLVTVSS
VL: EIVLTQSPATLSLSPGERATLSCRASQSVSSYLAWYQQKPGQAPRLLIYDASNRATGIPARFSGSGSGTDFTLTISSLEPEDFAVYYCQQSSNWPRTFGQGTKVEIK
notes: Human mAb

binding result [5]: binds
B5: anti-PD-1 HuMAb 17D8 (antibody, V domains shown)
VH: QVQLVESGGDVVQPGGSLRLSCAASGVAFSNYGMHWVRQAPGKGLEWVAVIWYDGSNKYYADSVKGRFTISRDNSKNMLYLQMNSLRAEDTAMYYCARNDDYWGQGTLVTVSS
VL: B4 VL with L47I, S91R, R96L, Q100G
notes: Human mAb; also called FITC-labeled 17D8

binding result [1]: binds
B8: anti-PD-L1 HuMAb 10A5 (antibody, V domains shown)
VH: QVQLVQSGAEVKKPGASVKVSCKASGYTFTSYDVHWVRQAPGQRLEWMGWLHADTGITKFSQKFQGRVTITRDTSASTAYMELSSLRSEDTAVYYCARERIQLWFDYWGQGTLVTVSS
VL: DIQMTQSPSSLSASVGDRVTITCRASQGISSWLAWYQQKPEKAPKSLIYAASSLQSGVPSRFSGSGSGTDFTLTISSLQPEDFATYYCQQYNSYPYTFGQGTKLEIK
notes: Human mAb; Used unconjugated and FITC-conjugated

Second part, the binder before the results:

B1: anti-PD-L1 HuMAb 1B12 (antibody, V domains shown)
VH: B2 VH with G27D, K57R, T77S, Y95F, Y100F, D101H, Y102F
VL: not shown
notes: Human mAb
IC50 (read off the curve) [1]: ~0.2 nM

B3: anti-PD-1 HuMAb 2D3 (antibody, V domains shown)
VH: QVQLVESGGDVVQPGRSLRLSCAASGLTFTNYGFHWVRQAPGKGLEWVAVIWYDGSKKYYADSVKGRFTISRDNSKNTLYLQMNNLRAEDTAVYYCATGDDYWGQGTLVTVSS
VL: B4 VL with A51T, S91R, R96L, Q100G
notes: Human mAb
binding result [3]: binds

B6: anti-PD-L1 HuMAb 3G10 (antibody, V domains shown)
VH: QVQLVQSGAEVKKPGASVKVSCKASGYTFTDYGFSWVRQAPGQGLEWMGWITAYNGNTNYAQKLQGRVTMTTDTSTSTVYMELRSLRSDDTAVYYCARDYFYGMDVWGQGTTVTVSS
VL: B4 VL with A34V, S91R
notes: as for B8
IC50 (read off the curve) [1]: ~0.9 nM

B7: anti-PD-1 HuMAb 7D3 (antibody, V domains shown)
VH: B3 VH with D10G, A23T, A24T, L27I, T30S, N31S, I70L, N74D, N85S, A97V
VL: B4 VL with S91R, R96L, Q100G
notes: Human mAb
binding result [6]: binds

B9: anti-PD-L1 HuMAb 10H10 (antibody, V domains shown)
VH: EVQLVESGGGLVQPGRSLRLSCAVSGFTFDDYVVHWVRQAPGKGLEWVSGISGNSGNIGYADSVKGRFTISRDNAKNSLYLQMNSLRAEDTALYYCAVPFDYWGQGTLVTVSS
VL: B8 VL
notes: as for B8
binding result [7]: binds
